The assay concerns the target T1, CEA antigen (UniProt P06731 35-685, limits assumed).
T1 sequence (looked up): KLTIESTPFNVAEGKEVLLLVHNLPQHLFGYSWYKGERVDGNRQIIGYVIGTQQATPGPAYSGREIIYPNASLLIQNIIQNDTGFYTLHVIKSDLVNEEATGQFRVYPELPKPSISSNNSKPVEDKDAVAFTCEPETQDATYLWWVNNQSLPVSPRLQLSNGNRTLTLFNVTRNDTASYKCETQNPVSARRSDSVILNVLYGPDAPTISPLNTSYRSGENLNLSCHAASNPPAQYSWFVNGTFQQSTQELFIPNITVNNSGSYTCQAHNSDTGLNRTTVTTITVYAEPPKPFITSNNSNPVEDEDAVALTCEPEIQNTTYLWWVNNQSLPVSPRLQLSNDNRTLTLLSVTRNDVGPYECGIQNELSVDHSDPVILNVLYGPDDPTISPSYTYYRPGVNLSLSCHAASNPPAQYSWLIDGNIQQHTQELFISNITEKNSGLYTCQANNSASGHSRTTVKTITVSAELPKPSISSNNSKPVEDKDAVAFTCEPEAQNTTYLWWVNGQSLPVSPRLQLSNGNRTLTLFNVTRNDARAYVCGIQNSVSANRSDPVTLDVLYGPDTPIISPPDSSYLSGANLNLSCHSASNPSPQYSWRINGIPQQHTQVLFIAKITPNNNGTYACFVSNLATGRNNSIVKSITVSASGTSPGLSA
The assay can be described thus: ELISA, plates coated with CEA antigen; MN14 as the standard. The method, then: Single colonies were made and from an initial 50 clones, 38 viable clones were obtained. The supernatants of these clones were analyzed for human kappa light chain, human Fc (IgG) and CEA antigen binding. For the huLC and huFc assay, the plates were coated with anti-huFab, for the CEA binding assay, the plates were coated with CEA antigen. All values are in ng/ml. Purified MN14 was used as a standard.

B1: MN14 antibody (antibody, V domains shown)
VH: EVQLVESGGGVVQPGRSLRLSCSASGFDFTTYWMSWVRQAPGKGLEWIGEIHPDSSTINYAPSLKDRFTISRDNAKNTLFLQMDSLRPEDTGVYFCASLYFGFPWFAYWGQGTPVTVSS
VL: DIQLTQSPSSLSASVGDRVTITCKASQDVGTSVAWYQQKPGKAPKLLIYWTSTRHTGVPSRFSGSGSGTDFTFTISSLQPEDIATYYCQQYSLYRSFGQGTKVEIKR
notes: Purified MN14 used as the standard of the assays; also called Purified MN14
For the molecule B1, the binding result is reported as “binds”.

The values above are taken from US20040038304A1 (CATALENT PHARMA SOLUTIONS, published 2004).
